Literature values in US20200069786A1, “COMPOSITION AND PROCESS FOR PREPARING VACCINE” (TREOS BIO ZRT., priority 2018, published 2020).
Read-outs that look alike come from different tables or passages of the source.

B1: SP17 (protein, UniProt Q15506 1-151, looked up)
Sperm surface protein Sp17: MSIPFSNTHYRIPQGFGNLLEGLTREILREQPDNIPAFAAAYFESLLEKREKTNFDPAEWGSKVEDRFYNNHAFEEQEPPEKSDPKQEESQISGKEEETSVTILDSSEEDKEKEEVAAVKIQAAFRGHIAREEAKKMKTNSLQNEEKEENK
B2: NXF2 (protein, UniProt Q9GZY0 1-626, looked up)
Nuclear RNA export factor 2: MCSTLKKCGTYRTEVAECHDHGSTFQGRKKGGSSFRDNFDKRSCHYEHGGYERPPSHCQENDGSVEMRDVHKDQQLRHTPYSIRCERRMKWHSEDEIRITTWRNRKPPERKMSQNTQDGYTRNWFKVTIPYGIKYDKAWLMNSIQSHCSDRFTPVDFHYVRNRACFFVQDASAASALKDVSYKIYDDENQKICIFVNHSTAPYSVKNKLKPGQMEMLKLTMNKRYNVSQQALDLQNLRFDPDLMGRDIDIILNRRNCMAATLKIIERNFPELLSLNLCNNKLYQLDGLSDITEKAPKVKTLNLSKNKLESAWELGKVKGLKLEELWLEGNPLCSTFSDQSAYVSAIRDCFPKLLRLDGRELSAPVIVDIDSSETMKPCKENFTGSETLKHLVLQFLQQYYSIYDSGDRQGLLGAYHDEACFSLAIPFDPKDSAPSSLCKYFEDSRNMKTLKDPYLKGELLRRTKRDIVDSLSALPKTQHDLSSILVDVWCQTERMLCFSVNGVFKEVEGQSQGSVLAFTRTFIATPGSSSSLCIVNDELFVRDASPQETQSAFSIPVSTLSSSSEPSLSQEQQEMVQAFSAQSGMKLEWSQKCLQDNEWNYTRAGQAFTMLQTEGKIPAEAFKQIS
B3: MAGE-A11 (protein, UniProt P43364 1-429, looked up)
Melanoma-associated antigen 11: METQFRRGGLGCSPASIKRKKKREDSGDFGLQVSTMFSEDDFQSTERAPYGPQLQWSQDLPRVQVFREQANLEDRSPRRTQRITGGEQVLWGPITQIFPTVRPADLTRVIMPLEQRSQHCKPEEGLQAQEEDLGLVGAQALQAEEQEAAFFSSTLNVGTLEELPAAESPSPPQSPQEESFSPTAMDAIFGSLSDEGSGSQEKEGPSTSPDLIDPESFSQDILHDKIIDLVHLLLRKYRVKGLITKAEMLGSVIKNYEDYFPEIFREASVCMQLLFGIDVKEVDPTSHSYVLVTSLNLSYDGIQCNEQSMPKSGLLIIVLGVIFMEGNCIPEEVMWEVLSIMGVYAGREHFLFGEPKRLLTQNWVQEKYLVYRQVPGTDPACYEFLWGPRAHAETSKMKVLEYIANANGRDPTSYPSLYEDALREEGEGV
B4: GAGE-1 (protein, UniProt P0DTW1 1-117, looked up)
G antigen 1: MSWRGRSTYYWPRPRRYVQPPEMIGPMRPEQFSDEVEPATPEEGEPATQRQDPAAAQEGEDEGASAGQGPKPEADSQEQGHPQTGCECEDGPDGQEMDPPNPEEVKTPEEGEGQSQC
B5: PASD1 (protein, UniProt Q8IV76 1-773, looked up)
Circadian clock protein PASD1: MKMRGEKRRDKVNPKSSQRKLNWIPSFPTYDYFNQVTLQLLDGFMITLSTDGVIICVAENISSLLGHLPAEIVGKKLLSLLPDEEKDEVYQKIILKFPLLNSETHIEFCCHLKRGNVEHGDSSAYENVKFIVNVRDICNEFPVVFSGLFSSHLCADFAACVPQEDRLYLVGNVCILRTQLLQQLYTSKAVSDEAVLTQDSDEEPFVGELSSSQGQRGHTSMKAVYVEPAAAAAAAAISDDQIDIAEVEQYGPQENVHMFVDSDSTYCSSTVFLDTMPESPALSLQDFRGEPEVNPLYRADPVDLEFSVDQVDSVDQEGPMDQQDPENPVAPLDQAGLMDPVDPEDSVDLGAAGASAQPLQPSSPVAYDIISQELELMKKLKEQLEERTWLLHDAIQNQQNALELMMDHLQKQPNTLRHVVIPDLQSSEAVPKKQQKQHAGQVKRPLPHPKDVKCFCGLSLSNSLKNTGELQEPCVAFNQQQLVQQEQHLKEQQRQLREQLQQLREQRKVQKQKKMQEKKKLQEQKMQEKKKLQEQRRQKKKKLQERKKWQGQMLQKEPEEEQQKQQLQEQPLKHNVIVGNERVQICLQNPRDVSVPLCNHPVRFLQAQPIVPVQRAAEQQPSGFYQDENCGQQEDESQSFYPEAYQGPPVNQLPLIDTSNSEAISSSSIPQFPITSDSTISTLETPQDYIRLWQELSDSLGPVVQVNTWSCDEQGTLHGQPTYHQVQVSEVGVEGPPDPQAFQGPAAYQPDQMRSAEQTRLMPAEQRDSNKPC
B6: HAGE (protein, UniProt Q9NXZ2 1-648, looked up)
Probable ATP-dependent RNA …: MSHHGGAPKASTWVVASRRSSTVSRAPERRPAEELNRTGPEGYSVGRGGRWRGTSRPPEAVAAGHEELPLCFALKSHFVGAVIGRGGSKIKNIQSTTNTTIQIIQEQPESLVKIFGSKAMQTKAKAVIDNFVKKLEENYNSECGIDTAFQPSVGKDGSTDNNVVAGDRPLIDWDQIREEGLKWQKTKWADLPPIKKNFYKESTATSAMSKVEADSWRKENFNITWDDLKDGEKRPIPNPTCTFDDAFQCYPEVMENIKKAGFQKPTPIQSQAWPIVLQGIDLIGVAQTGTGKTLCYLMPGFIHLVLQPSLKGQRNRPGMLVLTPTRELALQVEGECCKYSYKGLRSVCVYGGGNRDEQIEELKKGVDIIIATPGRLNDLQMSNFVNLKNITYLVLDEADKMLDMGFEPQIMKILLDVRPDRQTVMTSATWPHSVHRLAQSYLKEPMIVYVGTLDLVAVSSVKQNIIVTTEEEKWSHMQTFLQSMSSTDKVIVFVSRKAVADHLSSDLILGNISVESLHGDREQRDREKALENFKTGKVRILIATDLASRGLDVHDVTHVYNFDFPRNIEEYVHRIGRTGRAGRTGVSITTLTRNDWRVASELINILERANQSIPEELVSMAERFKAHQQKREMERKMERPQGRPKKFH
B7: SLCO6A1 (protein, UniProt Q86UG4 1-719, looked up)
Solute carrier organic anion …: MFVGVARHSGSQDEVSRGVEPLEAARAQPAKDRRAKGTPKSSKPGKKHRYLRLLPEALIRFGGFRKRKKAKSSVSKKPGEVDDSLEQPCGLGCLVSTCCECCNNIRCFMIFYCILLICQGVVFGLIDVSIGDFQKEYQLKTIEKLALEKSYDISSGLVAIFIAFYGDRKKVIWFVASSFLIGLGSLLCAFPSINEENKQSKVGIEDICEEIKVVSGCQSSGISFQSKYLSFFILGQTVQGIAGMPLYILGITFIDENVATHSAGIYLGIAECTSMIGYALGYVLGAPLVKVPENTTSATNTTVNNGSPEWLWTWWINFLFAAVVAWCTLIPLSCFPNNMPGSTRIKARKRKQLHFFDSRLKDLKLGTNIKDLCAALWILMKNPVLICLALSKATEYLVIIGASEFLPIYLENQFILTPTVATTLAGLVLIPGGALGQLLGGVIVSTLEMSCKALMRFIMVTSVISLILLVFIIFVRCNPVQFAGINEDYDGTGKLGNLTAPCNEKCRCSSSIYSSICGRDDIEYFSPCFAGCTYSKAQNQKKMYYNCSCIKEGLITADAEGDFIDARPGKCDAKCYKLPLFIAFIFSTLIFSGFSGVPIVLAMTRVVPDKLRSLALGVSYVILRIFGTIPGPSIFKMSGETSCILRDVNKCGHTGRCWIYNKTKMAFLLVGICFLCKLCTIIFTTIAFFIYKRRLNENTDFPDVTVKNPKVKKKEETDL
B8: FAM46D (protein, UniProt Q8NEK8 1-389, looked up)
Terminal …: MSEIRFTNLTWDQVITLDQVLDEVIPIHGKGNFPTMEVKPKDIIHVVKDQLIGQGIIVKDARLNGSVASYILASHNGISYKDLDVIFGVELPGNEEFQVVKDAVLDCLLDFLPKDVKKEKLSPDIMKDAYVQKLVKVCNGHDCWSLISLSNNTGKNLELKFVSSLRRQFEFSVDSFQIVLDPMLDFYSDKNAKLTKESYPVVVAESMYGDFQEAMTHLQHKLICTRKPEEIRGGGLLKYCSLLVHGFKPACMSEIKNLERYMCSRFFIDFPHIEEQQKKIESYLHNHFIGEGMTKYDYLMTLHGVVNESTVCLMSYERRQILHLITMMALKVLGELNILPNTQKVTCFYQPAPYFAAEARYPIYVIPEPPPVSFQPYHPLHFRGSNGMS

System: TSA
[1] = TSA expression rate in Cervical cancer
[2] = TSA expression rate in Esophageal
[3] = TSA expression rate in LUNG cancer
[4] = TSA expression rate in PROSTATE cancer
[5] = TSA expression rate in BLADDER cancer
[6] = TSA expression rate in GASTRIC cancer
[7] = TSA expression rate in HEAD and NECK
[8] = TSA expression rate in MELANOMA

Molecule | TSA Expression Rate (ER) (BRAIN) [%] | TSA Expression Rate (ER) (BREAST) [%] | TSA Expression Rate (ER) (HCC) [%] | TSA Expression Rate (ER) (OVARIAN) [%] | TSA Expression Rate (ER) (THYROID) [%] | Expression Rate (ER) % [1] [%] | Expression Rate (ER) % [2] [%] | Expression Rate (ER) % [3] [%] | Expression Rate (ER) % [4] [%] | Expression Rate (ER) % [5] [%] | Expression Rate (ER) % (TSA expression rate in CRC) [%] | Expression Rate (ER) % [6] [%] | Expression Rate (ER) % [7] [%] | Expression Rate (ER) % (TSA expression rate in Kidney) [%] | Expression Rate (ER) % [8] [%] | TSA Expression Rate (ER) (LUNG) [%]
B1 | 13 | 47 | 87 | 62 | 10 | 61 | 81 | 12 | 10 | – | – | – | – | – | – | –
B2 | 18 | 2 | – | – | 20 | – | 17 | 15 | 14 | 19 | 9 | 6 | 5 | 0 | 8 | –
B3 | – | 59 | 36 | – | – | – | – | – | – | – | – | – | 37 | – | 54 | –
B4 | 42 | – | – | – | – | – | – | – | – | – | – | – | 39 | – | – | –
B5 | 31 | – | – | – | 25 | 58 | – | – | 29 | – | 44 | 44 | – | – | 44 | 29
B6 | 38 | 14 | – | – | 20 | – | 27 | – | 22 | 24 | 15 | – | 20 | 6 | 17 | 32
B7 | 19 | 7 | – | – | – | – | 33 | 7 | – | – | – | – | – | – | – | –
B8 | 8 | – | – | – | 8 | 37 | – | – | 33 | – | 22 | 11 | – | – | 28 | 50
